T1: MBP-BIN2 (Arabidopsis, UniProt Q39011 1-380)
T1 construct: BIN2, Arabidopsis, At4g18710; source: E. coli, purified
T1 sequence (looked up): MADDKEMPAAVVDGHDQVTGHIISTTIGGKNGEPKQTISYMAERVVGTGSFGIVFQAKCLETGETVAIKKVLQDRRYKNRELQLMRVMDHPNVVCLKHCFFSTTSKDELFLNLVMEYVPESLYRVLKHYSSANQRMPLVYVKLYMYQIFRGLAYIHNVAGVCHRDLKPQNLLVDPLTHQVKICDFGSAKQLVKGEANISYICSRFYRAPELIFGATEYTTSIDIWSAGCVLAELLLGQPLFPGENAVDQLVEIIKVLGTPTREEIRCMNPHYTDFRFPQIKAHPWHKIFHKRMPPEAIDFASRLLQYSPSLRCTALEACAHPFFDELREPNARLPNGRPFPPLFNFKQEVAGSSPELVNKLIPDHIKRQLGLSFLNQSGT

B1: GST-PRE3 (natural protein, Arabidopsis, UniProt Q9CA64 1-93, looked up)
chain: MSGRRSRSRQSSGTSRISEDQINDLIIKLQQLLPELRDSRRSDKVSAARVLQDTCNYIRNLHREVDDLSERLSELLANSDTAQAALIRSLLTQ
notes: PRE3, Arabidopsis, At1g74500; source: E. coli, purified
B2: His-SUMO-UPB1 (natural protein, Arabidopsis, UniProt O22901 1-102, looked up)
chain: MGVTLEGQRKESIWVLMRRQRARRALVKKIMIRPRKSVEASRRPCRAIHRRVKTLKELVPNTKTSEGLDGLFRQTADYILALEMKVKVMQTMVQVLTETNCV
notes: UPB1, Arabidopsis, At2g47270; The phosphorylation methods speak of a 6x His tag; source: E. coli, purified
B3: GST-PRE2 (natural protein, Arabidopsis, UniProt Q9LXG5 1-94, looked up)
chain: MSSSRRSRQASSSSRISDDQITDLISKLRQSIPEIRQNRRSNTVSASKVLQETCNYIRNLNKEADDLSDRLTQLLESIDPNSPQAAVIRSLING
notes: PRE2, Arabidopsis, At5g15160; source: E. coli, purified

Legend:
PRE2 = PRE2 (UniProt Q9LXG5); test: anti-HA co-IP, anti-GFP blot; details: reference: wild type UPB1; sites S37,S41
PRE3 = PRE3 (UniProt Q9CA64); test: anti-HA co-IP, anti-GFP blot; details: reference: wild type UPB1; sites S37,S41
His-SUMO-UPB1 = target: B2; test: pull-down; His pull-down: about 30 ug His-SUMO-UPB1 with 30 ug MBP-BIN2, GST-PRE2 or GST-PRE3 in 400 ul 20 mM Tris-HCl pH 8.0, 150 mM NaCl, 0.2% Triton; about 3 h at 4 C; blots with anti-His, anti-MBP, anti-GST; details: both partners purified
MBP-BIN2 = target: T1, MBP-BIN2; test: as above; details: both partners purified

Q: “UPB1 (UPBEAT1) (from UniProt O22901) UPB1 S37A S41A” was tested. Which “binding against the reference” value (PRE2) did it give?
A: The value was “stronger”.

Q: What about the “binding against the reference” value (PRE3) of the same molecule?
A: Its value is “stronger”.

Q: Does B1 bind (His-SUMO-UPB1)?
A: Result: binds

Q: Does B2 bind (MBP-BIN2)?
A: Result: binds

Q: Does B3 bind (His-SUMO-UPB1)?
A: Result: binds

From publication PMC7360063, “Brassinosteroids regulate root meristem development by mediating BIN2-UPB1 module in Arabidopsis” (PLoS Genetics, 2020)
